Test [1] addresses T1, murine CD16-2 (Sino Biological Inc., 50036-M27H-B) (murine, UniProt A0A0B4J1G0 21-203, Probably biotinylated on the vendor's tag (catalogue suffix -B); not carried in the letters).
T1 construct: Purchased reagent; Biotinylation is only implied by 'a similar experimental procedure as described above'; also called mCD16-2
T1 sequence: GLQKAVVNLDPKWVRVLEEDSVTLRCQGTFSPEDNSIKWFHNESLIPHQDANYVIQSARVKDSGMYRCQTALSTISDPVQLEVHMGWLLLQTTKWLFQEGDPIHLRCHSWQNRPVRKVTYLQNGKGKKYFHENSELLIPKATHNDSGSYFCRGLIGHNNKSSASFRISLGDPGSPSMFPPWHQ
Briefly: ELISA on murine CD16-2, procedure similar to the hCD16a ELISA. Here is the method:
(§1) Specifically, a Maxisorp plate was coated with 100 ng/well of Neutravidin Biotin-binding Protein (ThermoScientific, 31000) and incubated overnight at 4° C. The following day, the plate was blocked with PBS+1% casein for 2 hours at room temperature. […] Binding to hCD16a was detected using an HRP-conjugated polyclonal goat anti-human Fc antibody (Jackson ImmunoResearch, 109-035-008) (incubation 1 hour at RT, dilution 1/50,000 in PBS+0.1% casein), followed by addition of 100 μl room temperature-equilibrated TMB (SDT-reagents #s TMB). Plates were incubated for 10 minutes prior to addition of 100 μl 0.5N H₂SO₄ and OD450 nm measurement. EC50 values were determined using GraphPad Prism software.
Using a similar experimental procedure as described above, the binding affinity for murine CD16-2 (Sino Biological Inc., 50036-M27H-B) was determined.

Test [2] concerns the target T2, biotinylated hCD16a (Sino Biological Inc., 10389-H27H1-B) (human, UniProt P08637 17-208, biotinylated (site not stated)).
T2 construct: Purchased reagent; also called human CD16a
The test can be described thus: ELISA; biotinylated hCD16a captured on neutravidin plate, anti-human Fc-HRP detection. Here is the method: as §1

For test [3], the target named is T2, biotinylated hCD16a (Sino Biological …). Briefly: ELISA; biotinylated hCD16a captured on neutravidin plate; reference is fucosylated Fc-Abdeg. As for the experimental part: as §1

A value given as a limit tells only on which side of the number the result lay.

T2 sequence (P08637 17-208 limits assumed): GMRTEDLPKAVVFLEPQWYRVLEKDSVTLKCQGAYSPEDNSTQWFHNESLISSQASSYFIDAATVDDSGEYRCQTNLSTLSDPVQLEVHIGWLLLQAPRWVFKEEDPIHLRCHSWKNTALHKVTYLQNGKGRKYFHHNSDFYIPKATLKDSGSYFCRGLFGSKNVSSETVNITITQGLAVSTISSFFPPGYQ

B1: Fc-Abdeg-POT (other)
chain: DKTHTCPPCPAPELLGGPSVFLFPPKPKDTLYITREPEVTCVVVDVSHEDPEVKFNWYVDGVEVHNAKTKPREEQYNSTYRVVSVLTVLHQDWLNGKEYKCKVSNKALPAPIEKTISKAKGQPREPQVYTLPPSRDELTKNQVSLTCLVKGFYPSDIAVEWESNGQPENNYKTTPPVLDSDGSFFLYSKLTVDKSRWQQGNVFSCSVMHEALKFHYTQKSLSLSPGK
modifications: afucosylated (defucosylated) N-linked glycan
notes: also called afucosylated form of Fc-Abdeg; afucosylated variant
For B1, the EC50 in test [1] amounted to 11 nM; in test [2], 13 nM. In addition, in test [3], the “fold increase in affinity vs Fc-Abdeg” value was greater than 30 fold.

B2: Fc-Abdeg (other)
chain: DKTHTCPPCPAPELLGGPSVFLFPPKPKDTLYITREPEVTCVVVDVSHEDPEVKFNWYVDGVEVHNAKTKPREEQYNSTYRVVSVLTVLHQDWLNGKEYKCKVSNKALPAPIEKTISKAKGQPREPQVYTLPPSRDELTKNQVSLTCLVKGFYPSDIAVEWESNGQPENNYKTTPPVLDSDGSFFLYSKLTVDKSRWQQGNVFSCSVMHEALKFHYTQKSLSLSPGK
notes: Isolated variant human IgG Fc region with no variable region; Produced in CHO cells, fucosylated; also called wild-type Fc-Abdeg; fucosylated Fc-Abdeg
The molecule B2 yielded an EC50 in test [1] greater than 100 nM.

B3: Fc-Abdeg-S239D/I332E (other)
chain: DKTHTCPPCPAPELLGGPDVFLFPPKPKDTLYITREPEVTCVVVDVSHEDPEVKFNWYVDGVEVHNAKTKPREEQYNSTYRVVSVLTVLHQDWLNGKEYKCKVSNKALPAPEEKTISKAKGQPREPQVYTLPPSRDELTKNQVSLTCLVKGFYPSDIAVEWESNGQPENNYKTTPPVLDSDGSFFLYSKLTVDKSRWQQGNVFSCSVMHEALKFHYTQKSLSLSPGK
notes: also called Fc-Abdeg-S239D/I332E variant
Regarding B3, the EC50 in test [2] is 6 nM.

The values above are taken from patent publication US20160264669A1 (ARGEN X N V, published 2016).
